From patent US20130316374A1, “BREAST CANCER DIAGNOSTICS” (IMBA - INSTITUT FUR MOLEKULARE BIOTECHNOLOGIE GMBH, priority 2010, published 2013)

Tested on: primary mouse mammary epithelial cells
Experiment: DNA damage responses (cell cycle arrest, apoptosis) in primary mouse mammary epithelial cells
Format: cell-based
Conditions: RANKL 1 μg/ml
Description: a, Western Blot analysis for γH2AX, phosphorylated (P) Chk1, total Chk1, p53 and β-actin in isolated primary mouse mammary gland epithelial cells in response to γ-irradiation (2 Gray) in the presence (1 μg/ml) or absence of RANKL stimulation. b,c, FACS analysis of propidium iodide (PI) stained b, mammary epithelial cells and c, SKBR3 human breast cancer cells after γ-irradiation (2 Gray) in the absence or presence (1 μg/ml) of RANKL. Data are representative of at least 3 experiments. Apoptotic cells with a DNA content <2n appear in the sub-G1 region. Percent of cells in sub-G1 (M1), G1-phase (M2), S/G2/M-phase (M3) as well as polyploid cells with a DNA content >4n are given for the indicated time points.
a,b, FACS analysis of a, mammary epithelial cells and b, SKBR3 human breast cancer cells incubated with the genotoxic agent doxorubicin (Dox, 1 μM) in the presence (1 μg/ml) or absence of RANKL. Data are representative of at least 3 experiments. Percent of cells in sub-G1 (M1), G1-phase (M2), S/G2/M-phase (M3) as well as polyploid cells with a DNA content >4n are given for 24 and 36 hours after doxorubicin treatment. c, mRNA expression of pro-apoptotic genes Bim, Puma, and Noxa 6 hours after γ-irradiation (2 Gray) in the presence (1 μg/ml) or absence of RANKL stimulation. Data are shown as fold change compared to control (+/−sem). n=3). *P<0.05; **P<0.005 (Student's t-test).
For measurement of cell cycle arrest and apoptosis primary mouse mammary epithelial cells and SKBR3 human breast cancer cells were seeded at a cell-density of 100000 cells/well in a 6-well plate and allowed to grow for 24 hours. Cells where then treated with doxorubicin (1 μM) or γ-irradiation (2 Gray) in the absence or presence of recombinant RANKL (1 μg/ml). Cell cycle arrest and numbers of dead cells were determined using propidium iodine staining. To determine in vivo mammary gland epithelial cell death, control and RANK^Δmam littermate females were γ-irradiated with a total dose of 5 Gray (Gy). Six hours later, mammary glands were isolated and immunostained for active Caspase 3 (Cell Signaling) indicative of apoptosis.

B1: RANKL: Receptor Activator of NF-κB Ligand; recombinant murine RANKL used for stimulation (protein, UniProt O35235 139-316, looked up)
Tumor necrosis factor ligand …: FSGAPAMMEGSWLDVAQRGKPEAQPFAHLTINAASIPSGSHKVTLSSWYHDRGWAKISNMTLSNGKLRVNQDGFYYLYANICFRHHETSGSVPTDYLQLMVYVVKTSIKIPSSHNLMKGGSTKNWSGNSEFHFYSINVGGFFKLRAGEEISIQVSNPSLLDPDQDATYFGAFKVQDID
γ-irradiation-induced upregulation of Bim, Puma, and Noxa mRNA (6 hours after γ-irradiation (2 Gray)): did not occur | cell death after DNA damage (doxorubicin (1 μM)): marked protection from cell death | early cell cycle arrest after DNA damage (doxorubicin (1 μM)): did not alter | cell death after DNA damage (γ-irradiation (2 Gray)): marked protection from cell death | early cell cycle arrest after DNA damage (γ-irradiation (2 Gray)): did not alter | induction of γH2AX and p53 or activation of Chk1 (γ-irradiation (2 Gray)): did not alter
